Experimental findings from patent US20240360238A1 (MAGENTA THERAPEUTICS, published 2024) are described below.

Experiment [1] concerns the target T1, purified human CD117 ectodomain (R&D Systems #332-SR) (human, UniProt P10721 26-524).
T1 construct: extracellular domain; Bought protein; also called c-kit; purified recombinant human CD117 ectodomain
Put plainly: BLI; kdis compared to HC-1/LC-1 (Ab1). On the technique in general: In BLI a coated tip is dipped into the sample, and binding shifts an interference pattern.

For experiment [2], the target named is T1, purified human CD117 ectodomain (R&D …). Put plainly: BLI, IgG on anti-human Fc sensor, 33 and 11 nM ectodomain.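 Note: Kd, kon and koff are apparent values, with Kd reported as the apparent monovalent affinity.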
Experiment [3] shares this target. Put plainly: BLI (Octet Red96), IgG on anti-human Fc sensor, 33.3 and 11 nM ectodomain.
Experiment [4] shares this target. Put plainly: BLI (Octet Red96), IgG1 on anti-human Fc sensor, 33.3 and 11 nM ectodomain, 1:1 fit.
For experiment [5] the target is unchanged. Put plainly: BLI, purified IgG on sensor, soluble ectodomain; apparent monovalent.

T1 sequence (P10721 26-524): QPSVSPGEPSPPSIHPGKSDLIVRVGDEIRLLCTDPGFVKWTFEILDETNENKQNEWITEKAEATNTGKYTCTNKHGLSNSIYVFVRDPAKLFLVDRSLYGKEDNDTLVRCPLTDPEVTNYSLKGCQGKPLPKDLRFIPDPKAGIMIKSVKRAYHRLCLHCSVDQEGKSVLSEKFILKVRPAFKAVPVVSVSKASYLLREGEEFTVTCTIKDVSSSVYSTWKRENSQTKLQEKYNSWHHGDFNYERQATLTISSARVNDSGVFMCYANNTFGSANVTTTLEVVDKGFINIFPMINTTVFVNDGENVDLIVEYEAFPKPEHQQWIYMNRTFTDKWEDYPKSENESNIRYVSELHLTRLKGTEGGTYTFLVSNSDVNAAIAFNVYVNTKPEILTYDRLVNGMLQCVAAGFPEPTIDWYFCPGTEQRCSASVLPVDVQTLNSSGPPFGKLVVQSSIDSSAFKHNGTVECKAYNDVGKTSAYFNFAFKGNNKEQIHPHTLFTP

B1: HC-85/LC-85 (Ab85) (antibody, V domains shown)
VH: EVQLVQSGAEVKKPGESLKISCKGSGYSFTNYWIGWVRQMPGKGLEWMAIINPRDSDTRYRPSFQGQVTISADKSISTAYLQWSSLKASDTAMYYCARHGRGYEGYEGAFDIWGQGTLVTVSS
VL: DIQMTQSPSSLSASVGDRVTITCRSSQGIRSDLGWYQQKPGKAPKLLIYDASNLETGVPSRFSGSGSGTDFTLTISSLQPEDFATYYCQQANGFPLTFGGGTKVEIK
notes: Purified IgG, hIgG1/hKappa; also called Antibody 85
What is called koff is the first-order rate constant of dissociation. Usually kon stands for the rate constant with which the complex forms. For the molecule B1, in experiment [1], the “Fold improvement (off-rate)” value worked out at 5.2 fold. For the same molecule, in experiment [2], the Kd worked out at 0.835 nM, the koff came to 0.000434 s⁻¹ and the kon worked out at 520000 M⁻¹ s⁻¹. Also, in experiment [3], the Kd is 0.835 nM, the koff turned out to be 0.000434 s⁻¹ and the kon worked out at 520000 M⁻¹ s⁻¹.

B2: HC-79/LC-79 (Ab79) (antibody, IgG1, V domains shown)
VH: QVQLVQSGAAVKKPGESLKISCKGSGYRFTTYWIGWVRQMPGKGLEWMGIIYPGDSDTRYSPSFQGQVTISAGKSISTAYLQWSSLKASDTAMYYCARHGRGYNGYEGAFDIWGQGTMVTVSS
VL: DIQLTQSPSSLSASVGDRVTITCRASQGVGSALAWYQQKPGKAPKLLIYDASILESGVPSRFSGSGSGTDFTLTISSLQPEDFATYYCQQFNSYPLTFGGGTKVEIK
notes: Purified human antibody tested as an IgG1; hIgG1/hKappa; also called Antibody 79
With B2, in experiment [1], the “Fold improvement (off-rate)” value came to 4.7 fold. In experiment [2], this molecule showed a Kd of 1.52 nM, an off-rate constant (koff) of 0.000478 s⁻¹ and a kon of 316000 M⁻¹ s⁻¹. Besides, in experiment [4], the Kd was 1.52 nM, the koff was 0.000478 s⁻¹ and the kon came out at 316000 M⁻¹ s⁻¹.

B3: HC-245/LC-245 (Ab245) (antibody, V domains shown)
VH: EVQLVQSGAEVKKPGESLKISCKGSGYRFTTSWIGWVRQMPGKGLEWMGIIYPGDSDTRYSPSFQGQVTISADKSISTAYLQWSSLKASDTAMYYCARHGLGYNGYEGAFDIWGQGTLVTVSS
VL: DIQMTQSPSSLSASVGDRVTITCRASQGIGSALAWYQQKPGKAPKLLIYDASTLESGVPSRFSGSGSGTDFTLTISSLQPEDFATYYCQQFNGYPLTFGQGTRLEIK
notes: IgG on anti-human Fc sensors; hIgG1/hKappa
On to B3, for which the “Fold improvement (off-rate)” value in experiment [1] amounted to 7.9 fold. In experiment [2], the Kd was determined as 0.813 nM, the off-rate constant (koff) was 0.000285 s⁻¹ and the kon was 350000 M⁻¹ s⁻¹.

B4: HC-248/LC-248 (Ab248) (antibody, V domains shown)
VH: EVQLVQSGAEVKKPGESLKISCKGSGYRFTTSWIGWVRQMPGKGLEWMGIIYPGDSDTRYSPSFQGQVTISADKSISTAYLQWSSLKASDTAMYYCARHGLGYNGYEGAFDIWGQGTLVTVSS
VL: DIQMTQSPSSLSASVGDRVTITCRASQGIGSALAWYQQKPGKAPKLLIYDASTLESGVPSRFSGSGSGTDFTLTISSLQPEDFATYYCQQLNGYPLTFGQGTRLEIK
notes: as for B3
Consider B4, for which, in experiment [1], the “Fold improvement (off-rate)” value stood at 7.1 fold. In experiment [2], this molecule came in with a Kd of 0.922 nM, a koff of 0.000319 s⁻¹ and a kon of 346000 M⁻¹ s⁻¹.

B5: HC-249/LC-249 (Ab249) (antibody, V domains shown)
VH: EVQLVQSGAEVKKPGESLKISCKGSGYRFTTSWIGWVRQMPGKGLEWMGIIYPGDSDTRYSPSFQGQVTISADKSISTAYLQWSSLKASDTAMYYCARHGLGYNGYEGAFDIWGQGTLVTVSS
VL: DIQMTQSPSSLSASVGDRVTITCRASQGIGSALAWYQQKPGKAPKLLIYDASNLETGVPSRFSGSGSGTDFTLTISSLQPEDFATYYCQQLNGYPLTFGQGTRLEIK
notes: as for B3
On to B5, for which the “Fold improvement (off-rate)” value in experiment [1] was 12 fold. Besides, in experiment [2], the Kd was found to be 0.551 nM, the koff is 0.000189 s⁻¹ and the kon was determined as 344000 M⁻¹ s⁻¹.

B6: HC-247/LC-247 (Ab247) (antibody, V domains shown)
VH: QVQLVQSGAAVKKPGESLKISCKGSGYRFTTYWIGWVRQMPGKGLEWMGIIYPGDSDTRYSPSFQGQVTISAGKSISTAYLQWSSLKASDTAMYYCARHGRGYNGYEGAFDIWGQGTMVTVSS
VL: DIQMTQSPSSLSASVGDRVTITCRASRGISDYLAWYQQKPGKAPKLLIYDASNLETGVPSRFSGSGSGTDFTLTISSLQPEDFATYYCQQANSFPITFGQGTRLEIK
notes: as for B3
Take B6: the “Fold improvement (off-rate)” value in experiment [1] was 3.6 fold. Further, in experiment [2], the Kd is 1.68 nM, the koff was found to be 0.00063 s⁻¹ and the kon was found to be 374000 M⁻¹ s⁻¹.

B7: HC-246/LC-246 (Ab246) (antibody, V domains shown)
VH: QVQLVQSGAAVKKPGESLKISCKGSGYRFTTYWIGWVRQMPGKGLEWMGIIYPGDSDTRYSPSFQGQVTISAGKSISTAYLQWSSLKASDTAMYYCARHGRGYNGYEGAFDIWGQGTMVTVSS
VL: DIQMTQSPSSLSASVGDRVTITCRASQGIGSALAWYQQKPGKAPKLLIYDASTLESGVPSRFSGSGSGTDFTLTISSLQPEDFATYYCQQFNGYPLTFGQGTRLEIK
notes: as for B3
Consider B7, for which the “Fold improvement (off-rate)” value in experiment [1] amounted to 8.9 fold. Further, in experiment [2], the Kd came to 0.708 nM, the koff was found to be 0.000255 s⁻¹ and the kon was 361000 M⁻¹ s⁻¹.

B8: HC-77/LC-77 (Ab77) (antibody, IgG1, V domains shown)
VH: QVQLVQSGAAVKKPGESLKISCKGSGYRFTTYWIGWVRQMPGKGLEWMGIIYPGDSDTRYSPSFQGQVTISAGKSISTAYLQWSSLKASDTAMYYCARHGRGYNGYEGAFDIWGQGTMVTVSS
VL: DIQLTQSPSSLSASVGDRVTITCRASQGVISALAWYQQKPGKAPKLLIYDASILESGVPSRFSGSGSGTDFTLTISSLQPEDFATYYCQQFNSYPLTFGGGTKVEIK
notes: Purified human antibody tested as an IgG1; hIgG1/hKappa; also called Antibody 77
As to B8, in experiment [1], the “Fold improvement (off-rate)” value was 10.5 fold. In experiment [2], this molecule yielded a Kd of 0.684 nM, a koff of 0.000215 s⁻¹ and a kon of 315000 M⁻¹ s⁻¹. For the same molecule, in experiment [4], the Kd was determined as 0.684 nM, the koff stood at 0.000215 s⁻¹ and the kon stood at 315000 M⁻¹ s⁻¹.

B9: HC-81/LC-81 (Ab81) (antibody, IgG1, V domains shown)
VH: QVQLVQSGAAVKKPGESLKISCKGSGYRFTTYWIGWVRQMPGKGLEWMGIIYPGDSDTRYSPSFQGQVTISAGKSISTAYLQWSSLKASDTAMYYCARHGRGYNGYEGAFDIWGQGTMVTVSS
VL: DIQLTQSPSSLSASVGDRVTITCRASQGVISALAWYQQKPGKAPKLLIYDASTLESGVPSRFSGSGSGTDFTLTISSLQPEDFATYYCQQFNSYPLTFGGGTKVEIK
notes: Purified human antibody tested as an IgG1; hIgG1/hKappa; also called Antibody 81
In the case of B9, the “Fold improvement (off-rate)” value in experiment [1] is 9 fold. In experiment [2], this molecule gave a Kd of 0.877 nM, a koff of 0.000252 s⁻¹ and a kon of 288000 M⁻¹ s⁻¹. Moreover, in experiment [4], the Kd amounted to 0.877 nM, the koff amounted to 0.000252 s⁻¹ and the kon amounted to 288000 M⁻¹ s⁻¹.

B10: HC-1/LC-1 (Ab1) (antibody, IgG1, V domains shown)
VH: QVQLVQSGAAVKKPGESLKISCKGSGYRFTTYWIGWVRQMPGKGLEWMGIIYPGDSDTRYSPSFQGQVTISAGKSISTAYLQWSSLKASDTAMYYCARHGRGYNGYEGAFDIWGQGTMVTVSS
VL: AIQLTQSPSSLSASVGDRVTITCRASQGVSSALAWYQQKPGKAPKLLIYDASSLESGVPSRFSGSGSGTDFTLTISSLQPEDFATYYCQQFNSYPLTFGGGTKVEIK
notes: Purified IgG (IgG1); also called 001; CK6 derivative Ab1
As to B10, the Kd in experiment [2] stood at 4.09 nM; in experiment [5], 2.81 nM; in experiment [3] it was 4.09 nM; in experiment [4], 3.1 nM. Besides, the koff is 0.00227 s⁻¹ in experiment [2], 0.000848 s⁻¹ in experiment [5], 0.00227 s⁻¹ in experiment [3] and 0.0013 s⁻¹ in experiment [4]. Further, the kon in experiment [2] was 556000 M⁻¹ s⁻¹; in experiment [5] it was 302000 M⁻¹ s⁻¹; in experiment [3], 556000 M⁻¹ s⁻¹; in experiment [4] it was 420000 M⁻¹ s⁻¹.
